Reference: publication PMC3656048, “SAP97 Controls the Trafficking and Resensitization of the Beta-1-Adrenergic Receptor through Its PDZ2 and I3 Domains” (PLoS ONE, 2013)

Molecular target: T1, GST-PDZ2 of SAP97 (rat)
T1 chain: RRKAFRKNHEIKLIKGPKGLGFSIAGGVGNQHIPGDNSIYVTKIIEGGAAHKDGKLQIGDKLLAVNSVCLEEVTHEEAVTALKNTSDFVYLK
Experiment: pull-down; solubilized membranes of HEK-293 cells expressing 1.2 pmoles of FLAG ß1-AR per mg protein mixed with increasing concentrations of GST-PDZ2; GST pull-downs probed with anti-ß1-AR antibody, optical densities, estimated EC50, n = 3
Settings: one partner purified

EC50: ~1000 nM
B1: full length WT FLAG ß1-AR (receptor)
chain: not shown
notes: human ß1-adrenergic receptor, wild type; also called FLAG-tagged WT ß1-AR; WT ß1-AR; not shown: FLAG, N-terminal, kept
